Measured values: the domain aggregation screens of Martell et al. (2025)

Assay: soluble fraction after stress (log2 fold change); higher = more stays soluble; pooled small domains, quantitative proteomics
Conditions: stress: 50 degC
How it was run: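 Quantitative proteomics served as the high-throughput read-out for pooled custom libraries of small protein domains. Each was stressed at 50°C. Aggregation propensity is expressed as the base-two log fold change in soluble protein after stress. A higher value means a larger share of the protein remains in solution.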

Sequence	soluble fraction (log2)
HMTESIHVGSKVTINNNAKRWATGQNIYSGVKGKTYTVIQMNGSRLLLDKVISWINKGDVHLPGS	-1.64
HMKKYLNIYNIIVNKIESKEYQSNDKLPSEKELMDQYNVSRDTVRKSLNMLEQNGYIQKTKGKGSFVLDIN	-0.634
HMLVYQRLDKDNFIFEGKTLLNDIYKILDIESNYFEAIRGEADSIAGLLLEIAKSIPTINTEF	-0.171
HMSLIHEQSLKEIRIFINNLPESLRTAFTLREQDGLSYEEISKITDTPIGTVRSRIFRARESILEHINEEL	-1.89
HMITKENYLEKIKEIKVNEFPASMRELYDFFNEATRNGTDWSAYEEGNVKYVVDAYLERLNLLYKSN	-0.175
HMTDPVLYEERDDIAIITINRPEKKNTLTDAVIQGIADGIDAATKSADVVAVVLRGAGDTLTAGYDLTA	-0.132
HMQITSTDEIEKMIDELIAANPEQTKQYQNGNHKVAGWFVGQMMKASKGKANPQMVNNLLQKKL	0.0271
HMHTDQVLVMTRAVGQGEIVRNTDVGLTSVAVDRAVTTIPASQLDEIVGRHALVDLSAGQLLGSHSVGA	0.0253
HMVTIYQRIMLVLEDKQVSVNALSKLVDMSQTTLNTQLKGERTLSANVVAKVLVAYPDVSAEWLMRGVGTM	0.362
HMKKTDFNVENYDIEELAAILNFKYVPLNQGLIRDRIKDMKQRFKNKPEYIKFFTDVEIKLVNNLNLFN	-1.24
HMSRARSRQTSMLEAVAGLGPARRRALLKQFGGLQGVLRAGIEDLSRAPGIGPALAQAIFEHLHPGA	-0.466
HMPSSQQVMRRLATVGPDKTLEELQRQHDAHLRKYGEFNDFRGERQQMRQEMERIKEAKQGTGPYAHLMG	0.0233
HMVNFKLIGNKIAEARKKVNISQAQLAQRLFISSQAVGKWERGESMPDIITFNRLAEILGVDLNYFSE	0.0107
HMAQPIPSGSDIREAREAAGMNLRDFARMVGGGAIGTWSHYETGKPIRVKSISPEVWQRVRDFILQHGK	-0.417
HMDRPARDEAQSWLADVLADGPVPTAEIREEAEAAGLAWRTIQRARIALSVEPIRGDGRNAWLWQLPG	-1.42
HMDERLAKLTPQERKILDLIAEGATNRQIGTELHLAEKTVKNYVSNMLMKLGMSRRTEAAVFAVKASIN	-0.64
HMEKVLPFEFERKFKTNHTAWDFFSNQAPPSYRKTVIHWILSAKQEITRISRLEKLIAASEQQKRI	-0.319
HMARKTIFHSLLGELEQRIGRLPAGTILPAEQALADEYGVSKPTLRRALAELAEHGLITKENGIGSVVI	-0.45
HMDSIQMKNNSILYYGNTAGYLDAKRNTAVVDPMFRTDEMESYLSEQKGLSVEWASGTYDRLT	0.149
HMKIDLPIWLNKKAWEAWVEYKKERKQKLTPSIIKFQLRILEKNKEDHPEIIRNSITNGWTGLFPLK	-1.27
HMENTIPSVIGRTLSDGVFLLESYGYVKGNVSEEFSEMPIGVIIRQFPGAGSAAEAGTRVDLVVSKGEEIV	-0.0523
HMAPAGGITRQDLFAWGLMGGEGSREKRQQLKKSLGLPSHLGTSGFLDALNLIATRDQVEALLHK	-0.15
HMTSSQLYLIEEDMEGERLDAFLAEVIADLSRTAIKDLISNGRVLVDGQARKPSYRVKEGEQVLIHVPEAR	-0.0195
HMVPQEVLPITLIIDGKLIEENLLYAKMTEQVLIQQLDINNIKSIKQILFAGLDSFGNFFYQEKQN	-1.8
HMKKNTEALDYYKKAGANFPEDEVISSEYLFRAAQLQEVLGKTDEAVAIYKDIKAKYPTTEIGLNVDKFIL	-0.0868

Sequence	soluble fraction (log2)
HMVDDRPVTGTTLIREWQGRAYEVIVQAGHFEFQGQRYQSLSAIAKVITGTVWNGWAFFGLR	-0.524
HMQKPDIEVDFAEGDMVVVTGGAWKDTAGVITGINMQKQTVTINVELFGRETPVEISFTEIKKA	0.00574
HMGVTDLFAVLGFPRSPWLDAEELKQRHHALMADEASANSSPTILNEARRTLQNPALRIRHFLALEFPDH	-0.397
HMGKLYRDRYAPLEPDGARAGDRVFIISLEKEGTLERIDLPRKTATVLLGSSIRSTFPLDDLYQPRG	0.0151
HMIENMQEYVRHIRAAVSDRLDLTREVEDDEIREVISQIVAEESRQNYLSLGERQTVIETVFNSMR	-0.2
HMYSDDNKSILNLIDNLFNKENIKIDINAKKLLSNYLGVDRLVTKGEIEKAILFAGTKKHLSIEDISAFLS	-0.0337
HMGESFPYVAYATDSVRLRARPSSSATILTVIRKGDAVLITGADGSYKIVEYEGRKGYVVSAFLSSQET	-0.857
HMKPLAQQVNDYLAATRTSIATLANEIPGYSRPTISRYLAGKYDGDITTIEKLLAEWLAQRTG	-0.354
HMGLQLTPVRRRVLEILLHEHRALGAYDILDKLRSEGLGSQPPVAYRALDFLVTHGFAHKIERLNAF	-0.609
HMSQSLSGWAAKDLEVKSGADASYRTVGRLPKGSKVSGKIINGYLHIEFDGSMRYVPVSGISKTE	-0.134
HMSIQREIILEVIKNNRTHPTAEEIYILVTKKEPKISRSTVYRNINILVEKGIIEKITIATGPDRYDY	-1.4
HMTRTISKVAKELAINIETVRFYERRGLIEQPPKPELGYRHYPDETVNRIRFIKRAQELGFTLEEIANLLS	-1.75
HMTVTMADISQAYNEKRYLTTISLSNTYLTFAKPTTELLSIRYRTYFIIGKYAESLTEIAKL	-0.173
HMPARTANEEAIRKYLLNHDSITRKETQALLKTGQSAAGRILKEMVENGWLARIGNGRSTGYELR	-0.034
HMDYQYILVDVKDRIATVTINRPEYSNAFARESYYEIADAMNTLGARDDVGVIVITGAGKHFSAGGDIKRF	-0.534
HMAGDVVVEVVGKVRDPQVVTLPKGSRVQDALEAAGGVKPGVNTTDQNLARLLVDGEQIRIGLSS	0.0918
HMGWTTPAGIAVGMDKSVLQDAYGKEDDTFQDKGILYYQYFVHPSRMSGLSFGIKNDKIVSITAYMD	-2.06
HMGESEWIVKWRGEKRDEERLQESELVRDDPEHRISVVRPRDDVDASAWLNRWRKSRYVQYIQPNHRVTIS	0.0613
HMGQVSDETGLARVVDALLAAHPDEVAKYRAGKTSLLGWFMGQVMKETRGQANPDLARALVLERLE	-0.101
HMDINEIILKVASEKKTFKTSDVLEALDNNYTKQHVSALISAMVKKGILVKAGSTAKSTYALPENASLL	-0.264
HMDTERLYAYAWQTHLKQFGLNISEEEIRQFVGVDDRIVHSFYAKTVPLDDFENTMFSLGEIIQQSL	-2.99
HMPGRPSRISDAVKDQIDHDLRKNPRDLGYSQNLWDGKLLSHHLKERYQITLGIRQAQRLFHQLGFRQR	-0.0323
HMNGKPDMTPIPAGSRNNDLHAWAYGRLLNHPDNAEAIRRDLFERGQTSGLKESELETIWQSIRRQLGGD	0.249
HMGDEHYDTISAFIKSVRGSDPDAALYWLAKMILAGEDPRFILRRLIVLSGEDIGLADPQGI	-0.653
HMTVSLTDVPFVPEILDRLERPELDVLLAILNGATNTFDLAAKTGRSRDELDEVLDRLTTLGLIER	-0.214

Sequence	soluble fraction (log2)
HMEVPFRNAAIFKTRSGDYAIRASYDGVDLGIKPIEKSTARTYFQLTDVKDKESFLNMTARNQYESEIAGI	-0.00166
HMFELVKISENIPIRDLAETLKTTPNEIIKELMVFGVLANINQTLNFDLASKVADKLGFEVELL	-0.246
HMDRQIQITVAENEAGQRLDAFLAAKIPDMSRSYIQKLIEDGLILVNGQSTKGKVKTYSGMNIEVYMPE	0.166
HMHSRLEDIPGIGPRRRAMLLRHFGGLAELKAAGVEEIARVEGINMALAQRLWRALHGVPDPT	-0.339
HMSSYETVTLNGQRYFKYKVKSGEGLYAISRMFSTPIAEIIRHNPSSNAGLKNGQELLIPVN	0.00287
HMNQDQDLSRIKGIGPEMVDRLHAQGVETLEQIAAMQMEQLKKLDQQISGNGKAVREQWAEQAKQLLTT	0.0638
HMIGIEALAGEIDRVRQVLTGGGGLSDVQLFSQLKALNEIKAALGASPDPRAPELVQRVDQLLEAAFRS	-0.0467
HMVEGMQFDRGYQSPYFVTNAEKMVAELDNPYILLVEKKISSMKELLPVLEPVAQQGKSLLIISEEVEG	-0.0564
HMQTYNQLKRGMTEWIQAGQKQKAYELFAGVAGQLSLSSAAGKKQYNELVTILNRAGFGIPLE	-0.428
HMSRVFSPSELEIRHAQDVFQALEEAKRQGKGAVSLNGKMIDAPIVARAKLVLEAAAAIYGED	-0.362
HMLSDADLAAFREVFDLVDKDKSGAIEMEEVEELTKLLGLDLTRDEVELLVREIDKDGNGEVDFEEFLLVM	0.0193
HMDSHSAESVRQRIKDMIAAEASKSILSDDTIVENLKSEGIEIARRTVAKYRESLNIPSSIQRRRIARSEA	-0.0963
HMKASEMKKGQTIKIDGVLYVIVDFQHVKLSKGGAVYQTKLRNLAAGGIRDIRIRAEEVLEDA	-0.311
HMLDIQKKGENIAYIEGAGDVIPESLKQIGYHVVTIAPKDINAETLSRFDAVVVGIRAYNTVEDL	-0.244
HMQVEMVLSQEAHEWLLQRGFIPEYGAREMDRVIAAHLKPLLMREILFGTLKAGGKVRVQVENGALKLQP	-1.44
HMDAYLPETVQKLLDVMDFDVPYSAAQLMEKLGLKSRASFRKLYLLPALEKNLIAMGVPDKPTSRNQTYIR	-0.417
HMVKNVVIPDVSNKAPVDASNQLTDLGFEVVTEYKYIASDTIEEGKVVKTSPEIGSKRKYGQKITLYISSG	-0.56
HMEELELTIDGEMVGRIDKQLGHHFDQFSRSQIQHWIEDGHVLVNGKQVKPKYKLLVGDHVQIIPEEPQK	0.25
HMNDIDRFIEALIEQDTLPGTNSRINEDVISEMKMMTSVEDIKAYAIATVGLTGGQVNNALINSGL	-0.0823
HMHLIPRESTYEIDGRRFVVDSVNLDFGKVSLQDITFRNATGFPIFRSESIEFMRRLVEISEAQRIAEL	-0.00889
HMHFDQILAHAMDERGMNAVQLASLTGLSSGAISRYLAGDRQPTVYSIQQIAKALGVSADYLVG	-0.884
HMYTDGVPALTDLKKESKPGRRQYVGVEDIPKVLGGLGITILSTSKGLMSGHQAKKKNIGGELIASV	0.258
HMETYTVPEVLGLTPEQAAQLPEVKDIFTLDVKEEGDFSDKPVGTIVRQSPTEGEHRKGDNLVIEVWLSV	-0.0593
HMVINTRHTGFVVDDLERFINFYLGLGLKLISRKVESGEYIDKLVGLKGTKLEWAKLSLPDNSMIEILKYH	-0.375
HMPGPAEMPGWITARAKKLGGQITPEAARALAAEMGSDTEQASREIEKLLTYVDYRRPVEEEDVALLTA	-0.0046
